In article doi:10.1101/2023.03.29.533101 (bioRxiv, 2023):
Read-outs that look alike come from different tables or passages of the source.

What was measured:
[1] = target: the molecule itself; assay: crystal structure
[2] = target: the molecule itself; assay: crystal structure; remark: listed apart in the source

Row | Protein | binding result [1] | binding result [2]
1 | OpgG from E. coli (EcOpgG) D361N mutant (enzyme, Escherichia coli, UniProt P33136 23-511, looked up) FSIDDVAKQAQSLAGKGYETPKSNLPSVFRDMKYADYQQIQFNHDKAYWNNLKTPFKLEFYHQGMYFDTPVKINEVTATAVKRIKYSPDYFTFGDVQHDKDTVKDLGFAGFKVLYPINSKDKNDEIVSMLGASYFRVIGAGQVYGLSARGLAIDTALPSGEEFPRFKEFWIERPKPTDKRLTIYALLDSPRATGAYKFVVMPGRDTVVDVQSKIYLRDKVGKLGVAPLTSMFLFGPNQPSPANNYRPELHDSNGLSIHAGNGEWIWRPLNNPKHLAVSSFSMENPQGFGLLQRGRDFSRFEDLDDRYDLRPSAWVTPKGEWGKGSVELVEIPTNDETNNNIVAYWTPDQLPEPGKEMNFKYTITFSRDEDKLHAPDNAWVQQTRRSTGDVKQSNLIRQPDGTIAFVVDFTGAEMKKLPEDTPVTAQTSIGDNGEIVESTVRYNPVTKGWRLVMRVKVKDAKKTTEMRAALVNADQTLSETWSYQLPANE | binds | 
2 | OpgD from E. coli (EcOpgD) D388N mutant (enzyme, Escherichia coli, UniProt P40120 33-551, looked up) ADSDIADGQTQRFDFSILQSMAHDLAQTAWRGAPRPLPDTLATMTPQAYNSIQYDAEKSLWHNVENRQLDAQFFHMGMGFRRRVRMFSVDPATHLAREIHFRPELFKYNDAGVDTKQLEGQSDLGFAGFRVFKAPELARRDVVSFLGASYFRAVDDTYQYGLSARGLAIDTYTDSKEEFPDFTAFWFDTVKPGATTFTVYALLDSASITGAYKFTIHCEKSQVIMDVENHLYARKDIKQLGIAPMTSMFSCGTNERRMCDTIHPQIHDSDRLSMWRGNGEWICRPLNNPQKLQFNAYTDNNPKGFGLLQLDRDFSHYQDIMGWYNKRPSLWVEPRNKWGKGTIGLMEIPTTGETLNNIVCFWQPEKAVKAGDEFAFQYRLYWSAQPPVHCPLARVMATRTGMGGFSEGWAPGEHYPEKWARRFAVDFVGGDLKAAAPKGIEPVITLSSGEAKQIEILYIEPIDGYRIQFDWYPTSDSTDPVDMRMYLRCQGDAISETWLYQYFPPAPDKRQYVDDRVMS |  | binds
